Assay results: doi:10.1101/2020.11.19.389494, “The structural mechanism underlying the antithetic effect of homologous RND1 and RhoD GTPases in plexin regulation” (bioRxiv, 2020)

Target: T1, human RhoD (residues 8-194) with the Q75L mutation, bound to GMP-PNP (human, UniProt O00212 8-194, Q75L)
T1 construct: Loaded with the GTP analogue GMP-PNP and Mg2+ before crystallisation; His6 tag removed with human rhinovirus 3C protease; also called GMP-PNP-loaded RhoD; source: E. coli BL21 (DE3), purified (HisTrap, Resource Q, Superdex 75); not shown: His6, N-terminal, cleaved
T1 sequence (looked up): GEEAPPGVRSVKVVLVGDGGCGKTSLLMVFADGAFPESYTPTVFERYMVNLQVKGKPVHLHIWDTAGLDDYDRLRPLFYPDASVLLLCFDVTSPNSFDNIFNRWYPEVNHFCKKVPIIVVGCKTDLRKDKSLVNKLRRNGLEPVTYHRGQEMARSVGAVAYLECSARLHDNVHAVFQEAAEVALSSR
Assay: crystal structure; Plexin B2 (1274-1842) and GMP-PNP-loaded RhoD mixed at 1:1 molar ratio, 6 mg/mL total; crystals grown over a month at 20 °C in 0.2 M MgCl2, 22 % PEG3350, 100 mM MIB pH 6.8; plexin B2 degraded to the RBD in the drops; 3.1 Å, molecular replacement
Conditions: both partners purified

- binding result: binds
B1: mouse plexin B2 Rho GTPase binding domain (RBD) (domain or fragment, UniProt B2RXS4 1463-1565, looked up)
chain: EYAPLTVSVIVQDEGIDAIPVKVLNCDTISQVKEKIIDQVYRTQPCSCWPKPDSVVLEWRPGSTAQILSDLDLTSQREGRWKRINTLMHYNVRDGATLILSKV
notes: Plexin B2, mouse; Expressed as the intracellular region without the juxtamembrane region (residues 1274-1842); it degraded in the crystallization drops and the crystal held only the RBD, of which residues 1463-1509 and 1510-1565 are described in the model; In the crystal two RBD chains form a domain-swapped dimer (swap between residues 1509 and 1510), which the authors regard as a crystallization …
